Data: US10196657B2, “Methods of producing 7-carbon chemicals via methyl-ester shielded carbon chain elongation” (INVISTA North America S.á r.l., priority 2012, dated 2019)

Assays:
Type in all cases: biochemical
[1] = Carboxylate reductase activity assay, N7-acetyl-7-aminoheptanoate to N7-acetyl-7-aminoheptanal; conditions: purified enzyme enhanced by sfp gene product, 2 mM substrate, room temperature, 20 min; against empty vector control; FIG. 12
Protocol: The activity of each of the N-terminal His-tagged carboxylate reductases of SEQ ID NOs: 3, 6, and 7 (see Examples 4, and FIGS. 7B, 7E, and 7F) for converting N7-acetyl-7-aminoheptanoate to N7-acetyl-7-aminoheptanal was assayed in triplicate in a buffer composed of a final concentration of 50 mM HEPES buffer (pH=7.5), 2 mM N7-acetyl-7-aminoheptanoate, 10 mM MgCl2, 1 mM ATP, and 1 mM NADPH. The assays were initiated by adding purified carboxylate reductase and phosphopantetheine transferase or the empty vector control to the assay buffer containing the N7-acetyl-7-aminoheptanoate then incubated at room temperature for 20 min. The consumption of NADPH was monitored by absorbance at 340 nm.

[2] = Carboxylate reductase activity assay, pimelate to pimelate semialdehyde (NADPH consumption); conditions: purified enzyme enhanced by sfp gene product, 2 mM pimelate, room temperature, 20 min; against empty vector control; FIG. 10
Protocol: A sequence encoding a HIS-tag was added to the genes from Segniliparus rugosus and Segniliparus rotundus that encode the carboxylate reductases of SEQ ID NOs: 4 and 7, respectively (see FIGS. 7C and 7F), such that N-terminal HIS tagged carboxylate reductases could be produced. Each of the modified genes was cloned into a pET Duet expression vector along with a sfp gene encoding a HIS-tagged phosphopantetheine transferase from Bacillus subtilis, both under the T7 promoter. Each expression vector was transformed into a BL21[DE3] E. coli host and the resulting recombinant E. coli strains were cultivated at 37° C. in a 250 mL shake flask culture containing 50 mL LB media and antibiotic selection pressure, with shaking at 230 rpm. Each culture was induced overnight at 37° C. using an auto-induction media.
The pellet from each induced shake flask culture was harvested via centrifugation. Each pellet was resuspended and lysed via sonication, and the cell debris was separated from the supernatant via centrifugation. […]
Enzyme activity assays (i.e., from pimelate to pimelate semialdehyde) were performed in triplicate in a buffer composed of a final concentration of 50 mM HEPES buffer (pH=7.5), 2 mM pimelate, 10 mM MgCl2, 1 mM ATP and 1 mM NADPH. […] The consumption of NADPH was monitored by absorbance at 340 nm.

[3] = Carboxylate reductase activity assay, pimelate semialdehyde to heptanedial; conditions: purified enzyme enhanced by sfp gene product, 2 mM pimelate semialdehyde, room temperature, 20 min; against empty vector control; FIG. 13
Protocol: The N-terminal His-tagged carboxylate reductase of SEQ ID NO 7 (see Example 4 and FIG. 7F) was assayed using pimelate semialdehyde as substrate. The enzyme activity assay was performed in triplicate in a buffer composed of a final concentration of 50 mM HEPES buffer (pH=7.5), 2 mM pimelate semialdehyde, 10 mM MgCl2, 1 mM ATP and 1 mM NADPH. The enzyme activity assay reaction was initiated by adding purified carboxylate reductase and phosphopantetheine transferase or the empty vector control to the assay buffer containing the pimelate semialdehyde and then incubated at room temperature for 20 min. The consumption of NADPH was monitored by absorbance at 340 nm.

[4] = Pimeloyl-[acp] methyl ester methylesterase activity assay, pimeloyl-CoA methyl ester to pimeloyl-CoA (LC-MS); conditions: 10 μM enzyme, 5 mM pimeloyl-CoA methyl ester, pH 7.0, 30° C., 1 h; FIG. 20
Protocol: A nucleotide sequence encoding a C-terminal His-tag was added to the gene from Escherichia coli encoding the pimeloyl-[acp] methylester methylesterase of SEQ ID NO: 17 (see FIG. 7H) such that a C-terminal HIS tagged pimeloyl-[acp] methyl ester methylesterase could be produced. The resulting modified gene was cloned into a pET28b+ expression vector under control of the T7 promoter and the expression vector was transformed into a BL21[DE3] E. coli host. The resulting recombinant E. coli strain was cultivated at 37° C. in a 500 mL shake flask culture containing 100 mL LB media and antibiotic selection pressure, with shaking at 230 rpm. Each culture was induced overnight at 18° C. using 0.3 mM IPTG.
The pellet from each induced shake flask culture was harvested via centrifugation. Each pellet was resuspended and lysed via sonication. The cell debris was separated from the supernatant via centrifugation. […]
Enzyme activity assays converting pimeloyl-CoA methyl ester to pimeloyl-CoA were performed in triplicate in a buffer composed of a final concentration of 25 mM Tris.HCl buffer (pH=7.0) and 5 [mM] pimeloyl-CoA methyl ester. […] The formation of pimeloyl-CoA was quantified via LC-MS.

Row | acceptance of pimelate as substrate (NADPH consumption, absorbance at 340 nm) [2] | Molecule | acceptance of N7-acetyl-7-aminoheptanoate as substrate (NADPH consumption, absorbance at 340 nm) [1] | acceptance of pimelate semialdehyde as substrate, forming heptanedial (NADPH consumption, absorbance at 340 nm) [3] | acceptance of pimeloyl-CoA methyl ester as substrate, forming pimeloyl-CoA (LC-MS) [4]
1 | accepted pimelate as substrate | SEQ ID NO 7: Segniliparus rotundus carboxylate reductase, Genbank Accession No. ADG98140.1 (protein, listed as Segniliparus rotundus) MTQSHTQGPQASAAHSRLARRAAELLATDPQAAATLPDPEVVRQATRPGLRLAERVDAILSGYADRPALGQRSFQTVKDPITGRSSVELLPTFDTITYRELRERATAIASDLAHHPQAPAKPGDFLASIGFISVDYVAIDIAGVFAGLTAVPLQTGATLATLTAITAETAPTLFAASIEHLPTAVDAVLATPSVRRLLVFDYRAGSDEDREAVEAAKRKIADAGSSVLVDVLDEVIARGKSAPKAPLPPATDAGDDSLSLLIYTSGSTGTPKGAMYPERNVAHFWGGVWAAAFDEDAAPPVPAINITFLPLSHVASRLSLMPTLARGGLMHFVAKSDLSTLFEDLKLARPTNLFLVPRVVEMLYQHYQSELDRRGVQDGTREAEAVKDDLRTGLLGGRILTAGFGSAPLSAELAGFIESLLQIHLVDGYGSTEAGPVWRDGYLVKPPVTDYKLIDVPELGYFSTDSPHPRGELAIKTQTILPGYYKRPETTAEVFDEDGFYLTGDVVAQIGPEQFAYVDRRKNVLKLSQGEFVTLAKLEAAYSSSPLVRQLFVYGSSERSYLLAVIVPTPDALKKFGVGEAAKAALGESLQKIARDEGLQSYEVPRDFIIETDPFTVENGLLSDARKSLRPKLKEHYGERLEAMYKELADGQANELRDIRRGVQQRPTLETVRRAAAAMLGASAAEIKPDAHFTDLGGDSLSALTFSNFLHDLFEVDVPVGVIVSAANTLGSVAEHIDAQLAGGRARPTFATVHGKGSTTIKASDLTLDKFIDEQTLEAAKHLPKPADPPRTVLLTGANGWLGRFLALEWLERLAPAGGKLITIVRGKDAAQAKARLDAAYESGDPKLAGHYQDLAATTLEVLAGDFSEPRLGLDEATWNRLADEVDFISHPGALVNHVLPYNQLFGPNVAGVAEIIKLAITTRIKPVTYLSTVAVAAGVEPSALDEDGDIRTVSAERSVDEGYANGYGNSKWGGEVLLREAHDRTGLPVRVFRSDMILAHQKYTGQVNATDQFTRLVQSLLATGLAPKSFYELDAQGNRQRAHYDGIPVDFTAESITTLGGDGLEGYRSYNVFNPHRDGVGLDEFVDWLIEAGHPITRIDDYDQWLSRFETSLRGLPESKRQASVLPLLHAFARPGPAVDGSPFRNTVFRTDVQKAKIGAEHDIPHLGKALVLKYADDIKQLGLL | accepted N7-acetyl-7-aminoheptanoate as substrate | accepted pimelate semialdehyde as substrate | 
2 |  | SEQ ID NO. 17: Escherichia coli pimelyl-[acp] methyl ester esterase, GenBank Accession No. AAC76437.1 (protein, listed as Escherichia coli) MNNIWWQTKGQGNVHLVLLHGWGLNAEVWRCIDEELSSHFTLHLVDLPGFGRSRGFGALSLADMAEAVLQQAPDKAIWLGWSLGGLVASQIALTHPERVQALVTVASSPCFSARDEWPGIKPDVLAGFQQQLSDDFQRTVERFLALQTMGTETARQDARALKKTVLALPMPEVDVLNGGLEILKTVDLRQPLQNVSMPFLRLYGYLDGLVPRKVVPMLDKLWPHSESYIFAKAAHAPFISHPAEFCHLLVALKQRV |  |  | accepted pimeloyl-CoA methyl ester as substrate
